From publication PMC6731145

B1: NRCAM-DNA (dsDNA)
DNA 1: GATCCATTACTTCTGAAACAGATGACTCCCAGCAGCTGCTGCCTGTGGCCCACAGGGCTTCCTGCCCTGCATGACAGCTGCACATCACATCCTGTGGTCATACTACTTCAGCCGCTTCTACGGCCAGATACAAAAGTGGGTGGGGAACATAGGCAAGGGATC
DNA 2: GATCCCTTGCCTATGTTCCCCACCCACTTTTGTATCTGGCCGTAGAAGCGGCTGAAGTAGTATGACCACAGGATGTGATGTGCAGCTGTCATGCAGGGCAGGAAGCCCTGTGGGCCACAGGCAGCAGCTGCTGGGAGTCATCTGTTTCAGAAGTAATGGATC
B2: CX3CR1-DNA (dsDNA)
DNA 1: GATCCGCAGGGCCTCTCGGCTGCTGATCTTCAGCTGGTTGCTGAGAGTTGCAGCATTGCTGAGTCTTAGCAATGGATACTTCCCGATTCCCCTCACAAAAATAGGTCAGTCTGTCTGGCTAGTTCTGTACTTGCAGACACAGGGCATGTGGGGTTCCGGATC
DNA 2: GATCCGGAACCCCACATGCCCTGTGTCTGCAAGTACAGAACTAGCCAGACAGACTGACCTATTTTTGTGAGGGGAATCGGGAAGTATCCATTGCTAAGACTCAGCAATGCTGCAACTCTCAGCAACCAGCTGAAGATCAGCAGCCGAGAGGCCCTGCGGATC

How the values were obtained:
TFAP-2α = TFAP-2α (human, UniProt P05549 1-437); experiment: EMSA
TFAP-2α, sequence (P05549 whole entry): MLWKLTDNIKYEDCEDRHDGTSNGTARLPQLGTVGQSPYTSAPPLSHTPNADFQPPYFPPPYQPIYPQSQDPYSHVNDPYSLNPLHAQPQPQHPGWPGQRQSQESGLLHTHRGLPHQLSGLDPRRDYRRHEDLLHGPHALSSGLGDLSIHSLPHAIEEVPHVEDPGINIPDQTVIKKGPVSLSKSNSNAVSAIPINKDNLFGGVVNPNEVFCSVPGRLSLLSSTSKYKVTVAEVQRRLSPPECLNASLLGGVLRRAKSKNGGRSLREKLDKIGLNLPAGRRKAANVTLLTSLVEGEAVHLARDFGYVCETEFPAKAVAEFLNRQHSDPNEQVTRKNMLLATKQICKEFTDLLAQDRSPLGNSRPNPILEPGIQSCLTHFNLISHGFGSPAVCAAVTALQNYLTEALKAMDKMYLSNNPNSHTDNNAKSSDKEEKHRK

CEBPβ T167D = CEBPβ T167D (mouse, UniProt P28033-3 1-275, T167D); experiment: EMSA
CEBPβ T167D, sequence (P28033 22-296 T188D): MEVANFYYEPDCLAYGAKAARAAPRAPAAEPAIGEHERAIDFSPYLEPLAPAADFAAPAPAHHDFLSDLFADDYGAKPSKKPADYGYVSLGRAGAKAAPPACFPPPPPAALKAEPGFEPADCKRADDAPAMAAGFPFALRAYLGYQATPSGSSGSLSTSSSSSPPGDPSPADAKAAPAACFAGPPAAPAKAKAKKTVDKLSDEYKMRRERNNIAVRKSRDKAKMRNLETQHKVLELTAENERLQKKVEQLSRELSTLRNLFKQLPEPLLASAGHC

Binder | binding result (TFAP-2α) | binding result (CEBPβ T167D)
B1 | binds | 
B2 |  | binds
